A word on the Km: it is the concentration of substrate that gives half-maximal velocity.

The nature of this series: pNPP hydrolysis, kinetic parameters. The series is classed as biochemical. To be noted: generic substrate pNPP, 0-60 mM, pH 6.8, room temperature. The procedure: For pNPP hydrolysis, 200 ng of PTP was incubated with varing amounts of the generic substrate (0-60 mM) in assay buffer (50 mM Tris pH 6.8 and 2 mM DTT) in a total volume of 50 μl at room temperature. Plates were read at 405 nm and kinetic parameters were determined using a non linear regression programme (Graphpad, Prism®).

B1: Sap-1WT: wild-type PTP-Sap1 catalytic domain (GST fusion) tested on pNPP (protein)
chain: LKRRNKKKQQKPELRDLVFSSPGDIPAEDFADHVRKNERDSNCGFADEYQQLSLVGHSQSQMVASASENNAKNRYRNVLPYDWSRVPLKPIHEEPGSDYINASFMPGLWSPQEFIATQGPLPQTVGDFWRLVWEQQSHTLVMLTNCMEAGRVKCEHYWPLDSQPCTHGHLRVTLVGEEVMENWTVRELLLLQVEEQKTLSVRQFHYQAWPDHGVPSSPDTLLAFWRMLRQWLDQTMEGGPPIVHCSAGVGRTGTLIALDVLLRQLQSEGLLGPFSFVRKMRESRPLMVQTEAQYVFLHQCILRFLQQSAQAPAEKEVPYEDVENLIYENVAAIQAHKLEV
modifications: left off: a dimerising Fc or GST
notes: wild-type PTP-Sap1 catalytic domain (GST fusion) tested on pNPP
B1: the Km came out at 2660 µM.

For the origin of these results see patent publication US20060241020A1, “Protein tyrosine phosphatase inhibitors” (Applied Research Systems ARS Holdings N.V., priority 2002, published 2006).
